{
  "source": "paper PMC5366180",
  "key": {"[1]": {"molecular_target": "T1, protein tyrosine kinase-7 (PTK7) ((Jurkat T-cells)) (UniProt Q13308)", "T1 sequence": "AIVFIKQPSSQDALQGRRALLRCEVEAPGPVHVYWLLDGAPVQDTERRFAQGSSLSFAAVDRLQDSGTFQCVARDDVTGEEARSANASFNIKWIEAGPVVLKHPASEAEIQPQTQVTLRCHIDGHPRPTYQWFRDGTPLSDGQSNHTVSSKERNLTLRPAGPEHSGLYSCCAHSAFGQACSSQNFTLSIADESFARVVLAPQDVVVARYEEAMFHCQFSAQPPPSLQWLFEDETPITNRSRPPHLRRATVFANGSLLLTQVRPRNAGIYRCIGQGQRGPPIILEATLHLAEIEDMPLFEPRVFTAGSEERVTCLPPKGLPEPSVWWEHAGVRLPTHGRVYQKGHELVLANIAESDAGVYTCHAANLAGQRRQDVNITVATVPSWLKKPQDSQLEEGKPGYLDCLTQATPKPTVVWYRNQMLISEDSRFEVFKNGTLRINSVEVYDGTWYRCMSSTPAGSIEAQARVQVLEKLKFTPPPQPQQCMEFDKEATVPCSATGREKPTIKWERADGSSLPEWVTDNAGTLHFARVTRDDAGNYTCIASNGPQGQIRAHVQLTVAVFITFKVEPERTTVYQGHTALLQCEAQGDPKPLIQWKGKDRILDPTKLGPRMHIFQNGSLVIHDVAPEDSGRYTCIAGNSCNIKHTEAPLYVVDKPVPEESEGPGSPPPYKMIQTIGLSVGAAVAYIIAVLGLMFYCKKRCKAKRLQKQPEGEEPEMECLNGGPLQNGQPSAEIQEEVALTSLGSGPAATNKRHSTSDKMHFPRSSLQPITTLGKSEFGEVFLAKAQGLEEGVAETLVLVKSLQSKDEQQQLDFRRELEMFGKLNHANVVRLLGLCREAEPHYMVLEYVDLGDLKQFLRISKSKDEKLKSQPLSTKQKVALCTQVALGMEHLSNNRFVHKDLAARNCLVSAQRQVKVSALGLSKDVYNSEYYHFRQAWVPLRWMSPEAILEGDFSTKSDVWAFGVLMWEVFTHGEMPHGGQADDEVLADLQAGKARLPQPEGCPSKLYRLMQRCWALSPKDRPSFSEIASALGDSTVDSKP", "experiment": "AFM single-molecule force spectroscopy", "conditions": "fixed Jurkat T-cells on Cell-Tak glass, pulling speeds 500-24000 nm/s, measurement buffer, pH and temperature not …"}, "[2]": {"molecular_target": "T1, protein tyrosine kinase-7 (PTK7) ((Jurkat T-cells))", "experiment": "cited value", "conditions": "5' NH2 or 5' SH; Aptamer tips prepared and stored in PBS; fixed Jurkat T-cells on Cell-Tak glass; pulling speeds 500-24000 nm/s; measurement buffer, pH and temperature not …; cited from earlier work"}, "[3]": {"molecular_target": "T1, protein tyrosine kinase-7 (PTK7) ((Jurkat T-cells))", "experiment": "competition (AFM single-molecule force spectroscopy)", "conditions": "1 uM free sgc8c blocks; 38.3% before block; Aptamer tips prepared and stored in PBS; fixed Jurkat T-cells on Cell-Tak glass; pulling speeds 500-24000 nm/s; measurement buffer, pH and temperature not …; scale: % residual binding probability of tip sgc8c"}},
  "note": "pKd: −log10 of the molar value.",
  "data": [
    {"sequence": "ATCTAACTGCTGCGCCGCGAAAATACTGTACGGTTAGA [sgc8c (tip-tethered)]", "values": [
      {"measurement": "binding signal (% binding probability)", "setting": "[1]; koff 5.16 ± 0.19 s-1, x_beta 0.65 ± 0.01 Å, 5' NH2 or 5' SH, Aptamer tips prepared and stored in PBS", "result": 38.3},
      {"measurement": "pKd", "setting": "[2]", "result": 9.10}
    ]},
    {"sequence": "CACCGGGAGGATAGTTCGGTGGCTGTTCAGGGTCTCCTCCCGGTG [TDO5]", "values": [
      {"measurement": "binding signal (% binding probability)", "setting": "[1]; background level, stated not to bind PTK7, 5' NH2, Aptamer tips prepared and stored in PBS", "result": 8.27}
    ]},
    {"sequence": "ATCTAACTGCTGCGCCGCGAAAATACTGTACGGTTAGA [sgc8c (free)]", "values": [
      {"measurement": "binding signal", "setting": "[3]", "result": 10.2}
    ]}
  ]
}
